Data reported in patent US20100168016A1, “DIAGNOSIS AND TREATMENT OF DISEASES CAUSED BY MISFOLDED PROTEINS” (THE JACKSON LABORATORY, priority 2007, published 2010).

Columns and labels:
[1] = tested on: sticky mutant mice; assay: fertility (number of live offspring) of sticky mutant mice; format: in vivo, mouse; settings: ANKRD16^CAST crossed into sti/sti; 7 matings, females 8-9 weeks
Procedure: FIGS. 7. A graph depicting litter size (y axis) in WT, STIM and STI mice (x axis). Expression of ANKRD16 protein can restore the reduced fertility in sticky mutant mice. “WT” refers to C57BL/6J wild type mice, “STIM” refers to sticky mutant mice carrying the modifier gene ANKRD16, and STI means homozygous sticky mutant mice.
Female mice of the various genotypes at the age of at 8-9 weeks were mated and the fertility was determined by counting the number of live offspring. When mating C57BL/6J mice (WT), which are wild type, the average litter size was 6.87 from 8 matings with a total of 55 offspring. […] When the modifier gene ANKRD16^CAST was crossed into the sti/sti mutations, the litter size was restored to normal with 6.51 pups from 7 matings with a total of 46 offspring. […] The CAST ANKRD16 is the full length version of ANKRD16, also called ANKRD^361.

[2] = tested on: sti/sti Purkinje cells; assay: ubiquitinated protein inclusions in sti/sti Purkinje cells; format: in vivo, mouse; settings: sti/sti mice, 4, 6 and 12 weeks of age
From the text: FIGS. 9A and B. Graphs illustrating that the expression of full length ANKRD16 reduces protein inclusions in sti/sti Purkinje cells. Sti/sti means homozygous sticky mice (B6.Cg-Aarssti/J). ANKRD16; sti/sti means homozygous sticky mice intercrossed with mice expressing full length ANKRD16. […] 4W means brains were isolated from 4 week old mice, 6W for 6 week old mice and 12 W for 12 week old mice.
Brains from homozygous sticky mice (sti/sti; B6.Cg-Aarssti/J; available from The Jackson Laboratory Stock Number 002560) and sticky mice intercrossed with transgenic mice expressing the full length ANKRD16, were isolated at the age of 4 weeks, 6 weeks and 12 weeks. The brains were processed for sectioning and antibody staining using standard histological methods. Sagittal sections were prepared and immunostained with antibodies against ubiquitin and calbindin. The antibodies against calbidin D-28 were used to visualize Purkinje cells. The antibodies against ubiquitin were used to visualize ubiquitinated protein aggregates. Purkinje cells with ubiquitinated aggregates were counted from three sections spaced at 100 micrometer beginning at midline and working laterally per mouse. Three mice from each genotype were analyzed. The total number of Purkinje cells with inclusions as well as the % of remaining Purkinje cells with inclusions are shown in the graphs in FIGS. 9A and 9B.

[3] = tested on: ubiquitin/proteasome pathway; assay: UbG76V-GFP proteasome reporter in mouse embryonic fibroblasts (FACS); format: cell-based; settings: ANKRD16^CAST double transgenic fibroblasts, 1.5 uM epoximicin for 6 hours
Procedure: FIG. 13. […] Mouse embryonic fibroblasts were analyzed from UbG76V-GFP transgenic and UbG76V-GFP; ANKRD16^CAST double transgenic mice; untreated and treated with 1000 nM epoximicin for 6; 12 or 18 hours (hr). The presence of the ANKRD16^CAST allele leads to reduced GFP intensity which correlates with increased proteasome activity.
Two lines of transgenic mice, UB^G76V-1 and UB^G76V-2, were generated with a ubiquitin-fusion GFP driven by the chicken β-actin promoter (Lindsten et al., 2003a; Lindsten et al., 2003b). UbG76V-GFP transgenic mice are available from The Jackson Laboratory (stock number 008111 and 008112). These mice ubiquitously express transcripts for the transgene, but as expected from the short half-life of the modified GFP protein, GFP is undetectable in all tissues analyzed. […]
UbG76V-GFP transgenic mice were intercrossed with the BAC transgenic mice carrying the CAST allele of ANKRD16, which gives rise to full length ANKRD16 mRNA and protein, yielding in double transgenic called UbG76V-GFP; ANKRD16^CAST. […] Using Western blot analysis the expression of ANKRD16 was analyzed showing an upregulation of ANKRD16 in the double transgenic mice UbG76V-GFP; ANKRD16 6^CAST. […]

[4] = tested on: sti/sti Purkinje cells; assay: Purkinje cell survival in sti/sti mice carrying the Pcp2-driven ANKRD16 transgene; format: in vivo, mouse
From the text: To determine if ANKRD16 can rescue neuron death in a cell autonomous fashion, we transgenically expressed the ANKRD16 cDNA in Purkinje cells and examined the role of this transgene in Purkinje cell survival in sti/sti mice. ANKRD16 coding sequence was amplified by polymerase chain reaction from cDNA by using Pfu DNA polymerase (Stratagene), purified by agarose gel electrophoresis and ligated into the expression vector. Transgenic (TgPcp2-ANKRD16) mice carrying the full-length ANKRD16 cDNA (ANKRD16^361 or CAST allele) were generated on the inbred C57BL/6J background by microinjection of the purified DNA into C57BL/6J zygotes.

[5] = tested on: mouse embryonic fibroblasts; assay: epoximicin-induced cell death of mouse embryonic fibroblasts (propidium iodide, FACS); format: cell-based; settings: epoximicin 400 nM to 2500 nM for 18 hours
Procedure: FIG. 14. […] Fibroblasts with different genotypes were compared: WT means C57BL/6J; UbG76VGFP transgenic and ANKRD16^CAST UbG76V-GFP double transgenic.
Mouse embryonic fibroblasts were treated with 1.5 uM epoximicin for 6 hours before the GFP (green fluorescent protein) levels were analyzed by fluorescence microscopy (data not shown) or fluorescence-activated cell sorting (FACS) analysis (FIG. 13). Mouse embryonic fibroblasts not expressing the ANKRD16^CAST allele show a higher GFP level. […] The proteasome inhibitor epoximicin prevents the rapid degradation of GFP in the proteasome. […] Further the embryonic fibroblasts from the C57BL/6J wild type (WT), UbG76V-GFP transgenic and UbG76V-GFP; ANKRD16^CAST double transgenic mice were treated with various concentrations of epoximicin for 18 hours. The epoximicin concentrations ranged from 400 nM to 2500 nM (see FIG. 14). Fibroblasts were stained with propidium iodide to evaluate the percentage of cell death by FACS analysis.

[6] = tested on: sti/sti embryonic fibroblasts; assay: serine-induced cell death in embryonic fibroblasts; format: cell-based, mouse; settings: ANKRD16^CAST/+; sti/sti fibroblasts vs sti/sti, increasing serine
From the text: FIG. 5. A graph depicting viability curves for mouse embryonic fibroblasts (MEFs) with increasing concentrations of serine in the culture media. ANKRD 16 (Stim^CAST) rescues serine-mediated cell death in sti/sti fibroblasts.
We analyzed serine-induced cell death in +/+, ANKRD16^CAST/+; sti/sti, and sti/sti embryonic fibroblasts. Mouse embryonic fibroblasts were isolated from mouse embryos carrying no mutation (WT; C57BL/6J), the CAST-derived ANKRD16 gene (ANKRD16^CAST/+) and the sticky (sti/sti) mutation, or carrying the C57BL/6 ANKRD16 gene and the sti mutation (sti/sti).

B1: ANKRD16^CAST: full length (361 amino acid) ANKRD16 from the CAST allele, expressed from congenic region or transgene in mice and cells (protein)
chain: MALPGDPRRLCRLVQEGRLRDLQEELAVARGCRGPAGDTLLHCAARHGRQDILAYLVEAWSMDIEATNRDYKRPLHEAASMGHRDCVRYLLGRGAVVDSLKKADWTPLMMACTRKNLDVIQDLVEHGANPLLKNKDGWNSFHIASREGHPVILRYLLTVCPDAWKTESNIRRTPLHTAAMHGCLEAVQVLLERCHYEPDCRDNCGVTPFMDAIQCGHVSIAKLLLEQHKACSSAADSMGAQALHRAAVTGQDEAIRFLVCGLGIDVDVRAKSSQLTALHYAAKEGQTNTVQTLLSLGADINSTDERNRSVLHLACAGQHVACTRLLLQSGLKDSADLTGTLAQQLMRSVDILQDFDHDVKS
**Q.** Which results are given for B1?
**A.** litter size [1]: 6.51 pups; Purkinje cells with protein aggregates [2]: reduces Purkinje cells with protein aggregates; green fluorescence from GFP [3]: greatly reduced; ataxia ([4]; sti/sti mice carrying the transgene, 3 months of age): no signs of ataxia; Purkinje cell death (calbindin D-28 immunohistochemistry) ([4]; sti/sti mice, Pcp2 (L7) promoter): suppression of Purkinje cell death; cell death [5]: reduced cell death; rescue from serine-induced cell death [6]: completely rescued
